Test results from PMC12101271 (Antibodies, 2025).

Molecular target: T1, hemagglutinin (HA) of influenza A/H1N1, in viral protein preparations (Influenza A virus (H1N1); …, UniProt C3W5X2)
T1 construct: source: viral protein preparations from A/H1N1
Assay: ELISA

B1: VHH 2-C10 (VHH)
VHH: QVQLQESGGGLVQAGGSLRLSCVASGRTFSSYSMAWFRQAPGKEREFVASISWSDINGYYPDSVKGRFTISRDNAKNTVYLQMNSLKPEDTAVYYCAARLGLSNYHYHRVSDYDVWGQGTQVTVSS
notes: also called native VHH 2-C10; source: E. coli TOP10F', culture medium, purified (Ni-NTA agarose)
binding result: binds
